# US20100260668A1 (published 2010)
# Assays:
# VEGF 1-165 aa [1] = target: T1, VEGF 1-165 aa (UniProt P15692 27-191); test: direct bind ELISA (N-term VD);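 note: ELISA screen of antibodies for binding to plate-immobilized target antigen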
# T1 construct: Bought antigen coated on the ELISA plate
# Protocol: (§1) Enzyme Linked Immunosorbent Assays to screen for antibodies that bind a desired target antigen were performed as follows. […] Plates were washed four times with PBS containing 0.02% Tween 20. Plates were blocked by the addition of 300 μL/well blocking solution (non-fat dry milk powder, various retail suppliers, diluted to 2% in PBS) for ½ hour at room temperature. Plates were washed four times after blocking with PBS containing 0.02% Tween 20.
# (§2) Alternatively, one hundred microliters per well of 10 μg/ml of Histidine (His) tagged desired target antigen (R&D Systems, Minneapolis, Minn.) was added to ELISA plates coated with monoclonal mouse anti-polyHistidine antibody as described above and incubated for 1 hour at room temperature. Wells were washed four times with PBS containing 0.02% Tween 20.
# (§3) Plates were washed 4 times with PBS containing 0.02% Tween 20.
# HGF-His tag [2] = target: T2, HGF-His tag (UniProt P14210 32-728); test: direct bind ELISA (C-term VD)
# T2 construct: Bought antigen coated on the ELISA plate; not shown: His tag
# HGF-His tag [3] = target: T2, HGF-His tag; test: direct bind ELISA (N-term VD);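 note: ELISA screen of antibodies for binding to plate-immobilized target antigen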
# Protocol: as §1, §2, §3
# VEGF 1-165 aa [4] = target: T1, VEGF 1-165 aa; test: direct bind ELISA (C-term VD)
# Protocol: as §1, §2, §3
# T2 sequence (P14210 32-728 limits assumed): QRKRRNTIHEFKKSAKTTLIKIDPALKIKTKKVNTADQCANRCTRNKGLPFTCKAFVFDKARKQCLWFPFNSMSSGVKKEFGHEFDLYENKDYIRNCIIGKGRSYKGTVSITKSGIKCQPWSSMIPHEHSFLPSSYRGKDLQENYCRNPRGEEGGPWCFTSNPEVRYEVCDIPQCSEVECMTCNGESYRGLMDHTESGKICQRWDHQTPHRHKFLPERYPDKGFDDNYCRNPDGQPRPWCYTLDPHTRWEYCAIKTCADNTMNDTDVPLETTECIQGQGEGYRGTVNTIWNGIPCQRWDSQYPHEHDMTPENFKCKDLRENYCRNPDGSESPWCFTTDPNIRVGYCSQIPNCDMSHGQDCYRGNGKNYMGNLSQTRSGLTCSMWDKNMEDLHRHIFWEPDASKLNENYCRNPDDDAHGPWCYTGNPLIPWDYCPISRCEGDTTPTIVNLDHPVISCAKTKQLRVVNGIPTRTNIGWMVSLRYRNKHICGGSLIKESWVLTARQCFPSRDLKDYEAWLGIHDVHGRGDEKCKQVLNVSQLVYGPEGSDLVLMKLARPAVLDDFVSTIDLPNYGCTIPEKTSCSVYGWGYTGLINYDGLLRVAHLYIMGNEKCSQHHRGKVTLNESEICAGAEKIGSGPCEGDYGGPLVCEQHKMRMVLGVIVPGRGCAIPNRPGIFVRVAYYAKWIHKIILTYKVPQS
# T1 sequence (P15692 other isoform, or with tags, fused parts or gaps limits assumed): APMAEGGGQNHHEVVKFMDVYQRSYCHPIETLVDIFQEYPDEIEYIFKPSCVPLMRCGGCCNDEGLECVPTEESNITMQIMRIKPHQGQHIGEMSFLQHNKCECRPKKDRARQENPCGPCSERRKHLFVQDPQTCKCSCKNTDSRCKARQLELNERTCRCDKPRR
Binder,EC50 (VEGF 1-165 aa [1]),EC50 (HGF-His tag [2]),EC50 (HGF-His tag [3]),EC50 (VEGF 1-165 aa [4])
"DVD670 (bispecific antibody, human IgG1, kappa, DVD-Ig; N-term VD AB071 (VEGF), C-term VD AB079 (HGF); HC linker long, LC linker long; vectors V1/V2) heavy: not shown light: DIQMTQSPSSLSASVGDRVTITCRASQVIRRSLAWYQQKPGKAPKLLIYAASNLASGVPSRFSGSGSGTDFTLTISSLQPEDFATYYCQQSNTSPLTFGQGTKVEIKRTVAAPSVFIFPPDIQMTQSPSSLSASVGDRVTITCKASENVVSYVSWYQQKPGKAPKLLIYGASNRNTGVPSRFSGSGSGTDFTLTISSLQPEDFATYYCGQSYNYPYTFGQGTKLEIKRTVAAPSVFIFPPSDEQLKSGTASVVCLLNNFYPREAKVQWKVDNALQSGNSQESVTEQDSKDSTYSLSSTLTLSKADYEKHKVYACEVTHQGLSSPVTKSFNRGEC",48.3 nM,3.1 nM,,
"DVD682 (bispecific antibody, human IgG1, kappa, DVD-Ig; N-term VD AB071 (VEGF), C-term VD AB079 (HGF); HC linker short, LC linker long; vectors V1/V2) heavy: not shown light: DIQMTQSPSSLSASVGDRVTITCRASQVIRRSLAWYQQKPGKAPKLLIYAASNLASGVPSRFSGSGSGTDFTLTISSLQPEDFATYYCQQSNTSPLTFGQGTKVEIKRTVAAPSVFIFPPDIQMTQSPSSLSASVGDRVTITCKASENVVSYVSWYQQKPGKAPKLLIYGASNRNTGVPSRFSGSGSGTDFTLTISSLQPEDFATYYCGQSYNYPYTFGQGTKLEIKRTVAAPSVFIFPPSDEQLKSGTASVVCLLNNFYPREAKVQWKVDNALQSGNSQESVTEQDSKDSTYSLSSTLTLSKADYEKHKVYACEVTHQGLSSPVTKSFNRGEC",53.1 nM,6.55 nM,,
"DVD678 (bispecific antibody, human IgG1, kappa, DVD-Ig; HC linker short, LC linker long; vectors V1/V2) heavy: not shown light: DIQMTQSPSSLSASVGDRVTITCSASQDISNYLNWYQQKPGKAPKVLIYFTSSLHSGVPSRFSGSGSGTDFTLTISSLQPEDFATYYCQQYSTVPWTFGQGTKVEIKRTVAAPSVFIFPPDIQMTQSPSSLSASVGDRVTITCKASENVVSYVSWYQQKPGKAPKLLIYGASNRNTGVPSRFSGSGSGTDFTLTISSLQPEDFATYYCGQSYNYPYTFGQGTKLEIKRTVAAPSVFIFPPSDEQLKSGTASVVCLLNNFYPREAKVQWKVDNALQSGNSQESVTEQDSKDSTYSLSSTLTLSKADYEKHKVYACEVTHQGLSSPVTKSFNRGEC",0.65 nM,4.69 nM,,
"DVD712 (bispecific antibody, human IgG1, kappa, DVD-Ig; N-term VD AB071 (VEGF), C-term VD AB012 (HGF); HC linker short, LC linker short; vectors V1/V2) heavy: not shown light: DIQMTQSPSSLSASVGDRVTITCRASQVIRRSLAWYQQKPGKAPKLLIYAASNLASGVPSRFSGSGSGTDFTLTISSLQPEDFATYYCQQSNTSPLTFGQGTKVEIKRTVAAPDIQMTQSPSSVSASVGDRVTITCRASQGISSWLAWYQQKPGKAPNLLIYEASSLQSGVPSRFGGSGSGTDFTLTISSLQPEDFATYYCQQANGFPWTFGQGTKVEIKRTVAAPSVFIFPPSDEQLKSGTASVVCLLNNFYPREAKVQWKVDNALQSGNSQESVTEQDSKDSTYSLSSTLTLSKADYEKHKVYACEVTHQGLSSPVTKSFNRGEC",64.2 nM,37.2 nM,,
"DVD664 (bispecific antibody, human IgG1, kappa, DVD-Ig; N-term VD AB071 (VEGF), C-term VD AB079 (HGF); HC linker short, LC linker short; vectors V1/V2) heavy: not shown light: DIQMTQSPSSLSASVGDRVTITCRASQVIRRSLAWYQQKPGKAPKLLIYAASNLASGVPSRFSGSGSGTDFTLTISSLQPEDFATYYCQQSNTSPLTFGQGTKVEIKRTVAAPDIQMTQSPSSLSASVGDRVTITCKASENVVSYVSWYQQKPGKAPKLLIYGASNRNTGVPSRFSGSGSGTDFTLTISSLQPEDFATYYCGQSYNYPYTFGQGTKLEIKRTVAAPSVFIFPPSDEQLKSGTASVVCLLNNFYPREAKVQWKVDNALQSGNSQESVTEQDSKDSTYSLSSTLTLSKADYEKHKVYACEVTHQGLSSPVTKSFNRGEC",40.9 nM,80.9 nM,,
"DVD676 (bispecific antibody, human IgG1, kappa, DVD-Ig; N-term VD AB071 (VEGF), C-term VD AB079 (HGF); HC linker long, LC linker short; vectors V1/V2) heavy: not shown light: DIQMTQSPSSLSASVGDRVTITCRASQVIRRSLAWYQQKPGKAPKLLIYAASNLASGVPSRFSGSGSGTDFTLTISSLQPEDFATYYCQQSNTSPLTFGQGTKVEIKRTVAAPDIQMTQSPSSLSASVGDRVTITCKASENVVSYVSWYQQKPGKAPKLLIYGASNRNTGVPSRFSGSGSGTDFTLTISSLQPEDFATYYCGQSYNYPYTFGQGTKLEIKRTVAAPSVFIFPPSDEQLKSGTASVVCLLNNFYPREAKVQWKVDNALQSGNSQESVTEQDSKDSTYSLSSTLTLSKADYEKHKVYACEVTHQGLSSPVTKSFNRGEC",130 nM,35.8 nM,,
"DVD680 (bispecific antibody, human IgG1, kappa, DVD-Ig; HC linker short, LC linker long; vectors V1/V2) heavy: not shown light: DIQMTQSPSSLSASVGDRVTITCRASQDVSTAVAWYQQKPGKAPKLLIYSASFLYSGVPSRFSGSGSGTDFTLTISSLQPEDFATYYCQQSYTTPPTFGQGTKVEIKRTVAAPSVFIFPPDIQMTQSPSSLSASVGDRVTITCKASENVVSYVSWYQQKPGKAPKLLIYGASNRNTGVPSRFSGSGSGTDFTLTISSLQPEDFATYYCGQSYNYPYTFGQGTKLEIKRTVAAPSVFIFPPSDEQLKSGTASVVCLLNNFYPREAKVQWKVDNALQSGNSQESVTEQDSKDSTYSLSSTLTLSKADYEKHKVYACEVTHQGLSSPVTKSFNRGEC",12.6 nM,5.17 nM,,
"DVD645 (bispecific antibody, human IgG1, kappa, DVD-Ig; N-term VD AB012 (HGF), C-term VD AB071 (VEGF); HC linker long, LC linker long; vectors V1/V2) heavy: not shown light: DIQMTQSPSSVSASVGDRVTITCRASQGISSWLAWYQQKPGKAPNLLIYEASSLQSGVPSRFGGSGSGTDFTLTISSLQPEDFATYYCQQANGFPWTFGQGTKVEIKRTVAAPSVFIFPPDIQMTQSPSSLSASVGDRVTITCRASQVIRRSLAWYQQKPGKAPKLLIYAASNLASGVPSRFSGSGSGTDFTLTISSLQPEDFATYYCQQSNTSPLTFGQGTKVEIKRTVAAPSVFIFPPSDEQLKSGTASVVCLLNNFYPREAKVQWKVDNALQSGNSQESVTEQDSKDSTYSLSSTLTLSKADYEKHKVYACEVTHQGLSSPVTKSFNRGEC",,,0.17 nM,
"DVD674 (bispecific antibody, human IgG1, kappa, DVD-Ig; HC linker long, LC linker short; vectors V1/V2) heavy: not shown light: DIQMTQSPSSLSASVGDRVTITCRASQDVSTAVAWYQQKPGKAPKLLIYSASFLYSGVPSRFSGSGSGTDFTLTISSLQPEDFATYYCQQSYTTPPTFGQGTKVEIKRTVAAPDIQMTQSPSSLSASVGDRVTITCKASENVVSYVSWYQQKPGKAPKLLIYGASNRNTGVPSRFSGSGSGTDFTLTISSLQPEDFATYYCGQSYNYPYTFGQGTKLEIKRTVAAPSVFIFPPSDEQLKSGTASVVCLLNNFYPREAKVQWKVDNALQSGNSQESVTEQDSKDSTYSLSSTLTLSKADYEKHKVYACEVTHQGLSSPVTKSFNRGEC",10.6 nM,17.6 nM,,
"DVD663 (bispecific antibody, human IgG1, kappa, DVD-Ig; N-term VD AB079 (HGF), C-term VD AB071 (VEGF); HC linker short, LC linker short; vectors V1/V2) heavy: not shown light: DIQMTQSPSSLSASVGDRVTITCKASENVVSYVSWYQQKPGKAPKLLIYGASNRNTGVPSRFSGSGSGTDFTLTISSLQPEDFATYYCGQSYNYPYTFGQGTKLEIKRTVAAPDIQMTQSPSSLSASVGDRVTITCRASQVIRRSLAWYQQKPGKAPKLLIYAASNLASGVPSRFSGSGSGTDFTLTISSLQPEDFATYYCQQSNTSPLTFGQGTKVEIKRTVAAPSVFIFPPSDEQLKSGTASVVCLLNNFYPREAKVQWKVDNALQSGNSQESVTEQDSKDSTYSLSSTLTLSKADYEKHKVYACEVTHQGLSSPVTKSFNRGEC",,,0.26 nM,

# More lines, now with the values ahead:
EC50 (VEGF 1-165 aa [1]),EC50 (HGF-His tag [2]),EC50 (HGF-His tag [3]),EC50 (VEGF 1-165 aa [4]),Binder
134 nM,14.7 nM,,,"DVD666 (bispecific antibody, human IgG1, kappa, DVD-Ig; HC linker long, LC linker long; vectors V1/V2) heavy: not shown light: DIQMTQSPSSLSASVGDRVTITCSASQDISNYLNWYQQKPGKAPKVLIYFTSSLHSGVPSRFSGSGSGTDFTLTISSLQPEDFATYYCQQYSTVPWTFGQGTKVEIKRTVAAPSVFIFPPDIQMTQSPSSLSASVGDRVTITCKASENVVSYVSWYQQKPGKAPKLLIYGASNRNTGVPSRFSGSGSGTDFTLTISSLQPEDFATYYCGQSYNYPYTFGQGTKLEIKRTVAAPSVFIFPPSDEQLKSGTASVVCLLNNFYPREAKVQWKVDNALQSGNSQESVTEQDSKDSTYSLSSTLTLSKADYEKHKVYACEVTHQGLSSPVTKSFNRGEC"
2.43 nM,17.8 nM,,,"DVD710 (bispecific antibody, human IgG1, kappa, DVD-Ig; HC linker short, LC linker short; vectors V1/V2) heavy: not shown light: DIQMTQSPSSLSASVGDRVTITCRASQDVSTAVAWYQQKPGKAPKLLIYSASFLYSGVPSRFSGSGSGTDFTLTISSLQPEDFATYYCQQSYTTPPTFGQGTKVEIKRTVAAPDIQMTQSPSSVSASVGDRVTITCRASQGISSWLAWYQQKPGKAPNLLIYEASSLQSGVPSRFGGSGSGTDFTLTISSLQPEDFATYYCQQANGFPWTFGQGTKVEIKRTVAAPSVFIFPPSDEQLKSGTASVVCLLNNFYPREAKVQWKVDNALQSGNSQESVTEQDSKDSTYSLSSTLTLSKADYEKHKVYACEVTHQGLSSPVTKSFNRGEC"
16.1 nM,22.9 nM,,,"DVD672 (bispecific antibody, human IgG1, kappa, DVD-Ig; HC linker long, LC linker short; vectors V1/V2) heavy: not shown light: DIQMTQSPSSLSASVGDRVTITCSASQDISNYLNWYQQKPGKAPKVLIYFTSSLHSGVPSRFSGSGSGTDFTLTISSLQPEDFATYYCQQYSTVPWTFGQGTKVEIKRTVAAPDIQMTQSPSSLSASVGDRVTITCKASENVVSYVSWYQQKPGKAPKLLIYGASNRNTGVPSRFSGSGSGTDFTLTISSLQPEDFATYYCGQSYNYPYTFGQGTKLEIKRTVAAPSVFIFPPSDEQLKSGTASVVCLLNNFYPREAKVQWKVDNALQSGNSQESVTEQDSKDSTYSLSSTLTLSKADYEKHKVYACEVTHQGLSSPVTKSFNRGEC"
136 nM,20.2 nM,,,"DVD668 (bispecific antibody, human IgG1, kappa, DVD-Ig; HC linker long, LC linker long; vectors V1/V2) heavy: not shown light: DIQMTQSPSSLSASVGDRVTITCRASQDVSTAVAWYQQKPGKAPKLLIYSASFLYSGVPSRFSGSGSGTDFTLTISSLQPEDFATYYCQQSYTTPPTFGQGTKVEIKRTVAAPSVFIFPPDIQMTQSPSSLSASVGDRVTITCKASENVVSYVSWYQQKPGKAPKLLIYGASNRNTGVPSRFSGSGSGTDFTLTISSLQPEDFATYYCGQSYNYPYTFGQGTKLEIKRTVAAPSVFIFPPSDEQLKSGTASVVCLLNNFYPREAKVQWKVDNALQSGNSQESVTEQDSKDSTYSLSSTLTLSKADYEKHKVYACEVTHQGLSSPVTKSFNRGEC"
,,0.26 nM,175 nM,"DVD643 (bispecific antibody, human IgG1, kappa, DVD-Ig; HC linker long, LC linker long; vectors V1/V2) heavy: not shown light: DIQMTQSPSSVSASVGDRVTITCRASQGISSWLAWYQQKPGKAPNLLIYEASSLQSGVPSRFGGSGSGTDFTLTISSLQPEDFATYYCQQANGFPWTFGQGTKVEIKRTVAAPSVFIFPPDIQMTQSPSSLSASVGDRVTITCRASQDVSTAVAWYQQKPGKAPKLLIYSASFLYSGVPSRFSGSGSGTDFTLTISSLQPEDFATYYCQQSYTTPPTFGQGTKVEIKRTVAAPSVFIFPPSDEQLKSGTASVVCLLNNFYPREAKVQWKVDNALQSGNSQESVTEQDSKDSTYSLSSTLTLSKADYEKHKVYACEVTHQGLSSPVTKSFNRGEC"
